Substitutions are numbered along the chain they refer to. Numbers in names are those of the source.
B1: ATG-2877: SEQ ID NO: 5; H244W (protein)
chain: MADKNILYGPEPFYPLEDGTAGEQMFDALSRYAAIPGCIALTNAHTKENVLYEEFLKLSCRLAESFKKYGLKQNDTIAVCSENSLQFFLPVIASLYLGIIVAPVNDKYIERELIHSLGIVKPRIVFCSKNTFQKVLNVKSKLKSIETIIILDLNEDLGGYQCLNNFISQNSDSNLDVKKFKPYSFNRDDQVASIMFSSGTTGLPKGVMLTHKNIVARFSIAKDPTFGNAINPTSAILTVIPFHWGFGMMTTLGYFTCGFRVVLMHTFEEKLFLQSLQDYKVESTLLVPTLMAFLAKSALVEKYDLSHLKEIASGGAPLSKEIGEMVKKRFKLNFVRQGYGLTETTSAVLITPKGDAKPGSTGKIVPLHAVKVVDPTTGKILGPNEPGELYFKGPMIMKGYYNNEEATKAIIDNDGWLRSGDIAYYDNDGHFYIVDRLKSLIKYKGYQVAPAEIEGILLQHPYIVDAGVTGIPDEAAGELPAAGVVVQTGKYLNEQIVQDYVASQVSTAKWLRGGVKFLDEIPKGSTGKIDRKVLRQMLEKHTNGHHHHHHHH
B2: C2149A12: SEQ ID NO: 49; H244W+T344A+I396K+S193A+N228D+L305F+S306P+I109V+F246Y+V261A (protein)
chain: B1 chain with I109V, S193A, N228D, F246Y, V261A, L305F, S306P, T344A, I396K
B3: C2261E4: SEQ ID NO: 50; H244W+T344A+I396K+S193A+N228D+L305F+S306P+I109V+I230F (protein)
chain: B1 chain with I109V, S193A, N228D, I230F, L305F, S306P, T344A, I396K
B4: C2262C2: SEQ ID NO: 47; H244W+T344A+I396K+S193A+N228D+L305F+S306P+I109V+Y183C+V261A+T289S (protein)
chain: B1 chain with I109V, Y183C, S193A, N228D, V261A, T289S, L305F, S306P, T344A, I396K
B5: C7612E10: SEQ ID NO: 68; H244W+T344A+I396K+S193A+N228D+L305F+S306P+I109V+V348I (protein)
chain: B1 chain with I109V, W244H
B6: C2160C1: SEQ ID NO: 51; H244W+T344A+I396K+S193A+N228D+L305F+S306P+I109V+K121Q+F246Y+V261A (protein)
chain: B1 chain with I109V, K121Q, S193A, N228D, F246Y, V261A, L305F, S306P, T344A, I396K
B7: C7584F2: SEQ ID NO: 73; H244W+T344A+I396K+S193A+N228D+L305F+S306P+I109V+A344I (protein)
chain: B1 chain with W244H, T344A
B8: C2159F8: SEQ ID NO: 48; H244W+T344A+I396K+S193A+N228D+L305F+S306P+I109V+Y32C (protein)
chain: B1 chain with Y32C, I109V, S193A, N228D, L305F, S306P, T344A, I396K
B9: C2158H3: SEQ ID NO: 46; H244W+T344A+I396K+S193A+N228D+L305F+S306P+I109V+N154S+V261A+I410M (protein)
chain: B1 chain with I109V, N154S, S193A, N228D, V261A, L305F, S306P, T344A, I396K, I410M
B10: C7579E3: SEQ ID NO: 71; H244W+T344A+I396K+S193A+N228D+L305F+S306P+I109V+Y339M (protein)
chain: B1 chain with W244H, S306P
B11: C2158H1: SEQ ID NO: 44; H244W+T344A+I396K+S193A+N228D+L305F+S306P+I109V+I230F (protein)
chain: B1 chain with I109V, S193A, N228D, I230F, L305F, S306P, T344A, I396K
B12: MK0136: SEQ ID NO: 104; H244W+S193A+N228D+L305F+S306P+I109V+C38R+F55I+Y108F+A316W+Y339M (protein)
chain: MADKNILYGPEPFYPLEDGTAGEQMFDALSRYAAIPGRIALTNAHTKENVLYEEILKLSCRLAESFKKYGLKQNDTIAVCSENSLQFFLPVIASLYLGIIVAPVNDKFVERELIHSLGIVKPRIVFCSKNTFQKVLNVKSKLKSIETIIILDLNEDLGGYQCLNNFISQNSDSNLDVKKFKPYSFNRDDQVAAIMFSSGTTGLPKGVMLTHKNIVARFSIAKDPTFGDAINPTSAILTVIPFHWGFGMMTTLGYFTCGFRVVLMHTFEEKLFLQSLQDYKVESTLLVPTLMAFLAKSALVEKYDFPHLKEIASGGWPLSKEIGEMVKKRFKLNFVRQGMGLSETTSAILITPKGDAKPGSTGKIVPLHAVKVVDPTTGKILGPNEPGELYFKGPMIMKGYYNNEEATKAIIDNDGWLRSGDIAYYDNDGHFYIVDRLKSLIKYKGYQVAPAEIEGILLQHPYIVDAGVTGIPDEAAGELPAAGVVVQTGKYLNEQIVQDYVASQVSTAKWLRGGVKFLDEIPKGSTGKIDRKVLRQMLEKHTNGHHHHHHHH
B13: MK0138: SEQ ID NO: 106; H244W+S193A+N228D+L305F+S306P+I109V+C38R+F55I+Y108F+A316W+Y339M+T3441+I396K (protein)
chain: B12 chain with F108Y, K121Q, S342T, T344I, I396K

What was measured:
[1] = Differential scanning fluorimetry (DSF) analysis; type: physicochemical; design: key to DSF Tm: melting temperature in °C (heated 30-95 °C at 1 °C/min); conditions: for DSF Tm: Table 7A; for DSF Tm (° C.): Table 9B
Protocol: (§1) To conduct the experiment, Sypro Orange (5000×) was diluted in water to 3× and combined with enzymes stored in 50 mM HEPES pH 7.5, 100 mM NaCl, 2 mM EDTA to a final concentration of 5×. Fluorescence was read at 60 second intervals as the reactions were heated at 1° C. per minute from 30-95° C. The change in fluorescence at each minute was calculated and plotted for each temperature in the range.
as §1, with “The luciferase enzyme variants generated were also evaluated using DSF analysis as shown in the representative results provided in Tables 7A and 7B above. To” for “To”, “the experiments,” for “the experiment,”, “in 20” for “in 50”, “7.5, 200” for “7.5, 100”, “NaCl, 1” for “NaCl, 2”

[2] = Luminescence of ATG-3707 variants (second round epPCR) with CS0333; type: biochemical; conditions: for Luminescence (RLU) BrightGlo / Normalized Luminescence BrightGlo: BrightGlo buffer; for Luminescence (RLU) BrightGlo / Luminescence (RLU) CellTiterGlo / Luminescence (RLU) Detection Reagent: 25° C., 3 min; for Normalized Luminescence BrightGlo / Normalized Luminescence CellTiterGlo / Normalized Luminescence Detection Reagent: normalized to ATG-3707; for Luminescence (RLU) CellTiterGlo / Normalized Luminescence CellTiterGlo: CellTiterGlo buffer; for Luminescence (RLU) Detection Reagent / Normalized Luminescence Detection Reagent: Detection Reagent buffer
Protocol: Reagent compositions included CS0333 diluted from 20 mM to 2 mM in reaction buffer with 2 mM ATP. […] Reactions were incubated at 25° C. for 3 min, and luminescence was read and then normalized to ATG-3707 activity tested in parallel.

[3] = Brightness of additional luciferase enzyme variants with CS0333; type: biochemical; conditions: Table 7A, 1 mM CS0333; for Fold-improvement over ATG3707, CS0333 BG: Bright-Glo buffer; for Fold-improvement over ATG3707, CS0333 DR: Detection Reagent buffer
Protocol: (§2) Additional luciferase enzyme variants were generated and evaluated for their stability and activity. To evaluate the additional luciferase enzyme variants, 0.005 mg/ml luciferase enzyme variant was mixed with 1 mM ATP+1 mM substrate in either Bright-Glo™ (BG) or Detection Reagent (DR) buffers. […] (Table 7A is colored according to their relative luminescence values within each column across a red to green color spectrum with the lowest values colored red and the highest values colored green.)

[4] = Brightness of additional luciferase enzyme variants with CS0280; type: biochemical; conditions: Table 7A, 1 mM CS0280; for Fold-improvement over ATG3707, CS0280 BG: Bright-Glo buffer; for Fold-improvement over ATG3707, CS0280 DR: Detection Reagent buffer
Protocol: as §2

Row | Molecule | transition melting temperature by DSF ([1]; compared with Ppe variant (SEQ ID NO: 1), FIG. 29) | Luminescence (RLU) BrightGlo [2] [RLU] | Normalized Luminescence BrightGlo [2] | Luminescence (RLU) CellTiterGlo [2] [RLU] | Normalized Luminescence CellTiterGlo [2] | Luminescence (RLU) Detection Reagent [2] [RLU] | Normalized Luminescence Detection Reagent [2] | Fold-improvement over ATG3707, CS0333 BG [3] | Fold-improvement over ATG3707, CS0333 DR [3] | DSF Tm [1] | Fold-improvement over ATG3707, CS0280 BG [4] | Fold-improvement over ATG3707, CS0280 DR [4] | DSF Tm (° C.) [1] [°C]
1 | B1 | does not alter the transition melting temperature |  |  |  |  |  |  |  |  |  |  |  | 
2 | B2 |  | 4701610 | 1.21 | 479613 | 0.74 | 5480500 | 1.06 |  |  |  |  |  | 
3 | B3 |  | 3249560 | 0.84 | 710098 | 1.10 | 5375380 | 1.04 |  |  |  |  |  | 
4 | B4 |  | 3874490 | 1.00 | 738328 | 1.15 | 5661740 | 1.10 |  |  |  |  |  | 
5 | B5 |  |  |  |  |  |  |  | 2.28 | 2.27 | 63 | 2.22 | 2.02 | 
6 | B6 |  | 4459170 | 1.15 | 450262 | 0.70 | 5002710 | 0.97 |  |  |  |  |  | 
7 | B7 |  |  |  |  |  |  |  | 2.35 | 2.15 | 65 | 2.78 | 2.68 | 
8 | B8 |  | 4599710 | 1.18 | 650068 | 1.01 | 5611680 | 1.09 |  |  |  |  |  | 
9 | B9 |  | 3892740 | 1.00 | 648483 | 1.01 | 5916440 | 1.15 |  |  |  |  |  | 
10 | B10 |  |  |  |  |  |  |  | 1.19 | 1.96 | 55 | 3.26 | 3.63 | 
11 | B11 |  | 3760160 | 0.97 | 778990 | 1.21 | 6098750 | 1.18 |  |  |  |  |  | 
12 | B12 |  |  |  |  |  |  |  |  |  |  |  |  | 71
13 | B13 |  |  |  |  |  |  |  |  |  |  |  |  | 58
